Test results reported in the nanobody polyreactivity screen of Harvey et al. (2022).

Test: yeast display, Sf9 membrane polyspecificity reagent, FACS + sequencing; frameworks hold sequencing errors
How it was run: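 Polyreactivity labels are assigned by the sorting gate from which each nanobody was recovered. The gates were low and high (top ~1%), set on anti-HA fluorescence for expression and streptavidin fluorescence for reagent binding. Before sorting, galactose-induced (36–48 hours) yeast display cells were stained for 1 hour at 4 °C with 10% biotinylated, detergent-solubilized Sf9 membrane reagent.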

QVQLVESGGGLVQAGGSLRLSCAASGIIFGWNTMGWYRQAPGKEREFVAAISSSGGSTYADSVKGRFTISRDNAKNTVYLQMNSLKPEDTAVYYCAASKQPGSFEFDYWGQGTQVTVSS
polyreactivity (PSR sort gate): high polyreactivity

QVQLVESGGGLVQAGGSLRLSCAASGIIFGWYAMGWYRPAPGKERELVAGISIGGSTYYADSVKGRFTISRDNANNTVYLQMNSLKPEDTAVYYCAADSYFVLPWSDYWGQGTQVTVSS
polyreactivity (PSR sort gate): high polyreactivity

QVQLVESGGGLVQAGGSLRLSCAASGIIFGYYAMGWYRQAPGKERELVATINWDGGSTYYADSVKGRFTISRDNAKNTVYLQMNSLKPEDTAVYYCAAAKPVQYRIAQAHVGYWGQGTQVTVSS
polyreactivity (PSR sort gate): low polyreactivity

QVQLVESGGGLVQAGGSLRLSCAASGIIFHGYAMGWYRQAPGKERDLVAAITASDGDTYYADSVKGRFTISRDNAKNTVYLQMNSMKPEDTAVYYCAADFWYYHTRMDYWGQGTQVTVSS
polyreactivity (PSR sort gate): low polyreactivity

QVQLVESGGGLVQAGGSLRLSCAASGIIFHGYAMGWYRQAPGKERELVAAITNSGGRTYYADSVKGRFTISRDNAKNTVYLQMNSLKPEDTAVYYCAADGHKYRMDYWGQGTQVTVSS
polyreactivity (PSR sort gate): low polyreactivity

QVQLVESGGGLVQAGGSLRLSCAASGIIFIFYDMGWYRQAPGKERELVATITSGTNTYADSVKGRFTISRDNAKNTVYLQMNSLKPEDTAVYYCNAGAVHKKPARDYWGQGTQVTVSS
polyreactivity (PSR sort gate): low polyreactivity

QVQLVESGGGLVQAGGSLRLSCAASGIIFINYAMGWYRQAPGKEWELVAAITSSGGSTYYADSVKGRFTISRDNAKNTVYLQMNSLKPEDTAVYYCAAVSSYWGQGTQVTVSS
polyreactivity (PSR sort gate): low polyreactivity

QVQLVESGGGLVQAGGSLRLSCAASGIIFIVNAMGWYRQAPGKERELVAAISNGGSTNYADSVKGRFTISRDNAKNTVYLQMNSLKPEDTAVYYCAADDEGWWVTNYDYWGQGTQVTVSS
polyreactivity (PSR sort gate): low polyreactivity

QVQLVESGGGLVQAGGSLRLSCAASGIIFIYNGMGWYRQAPGKERELVATINWSGGNTYYADSVKGRFTISRDNAKNTVSLQMNSLKPEDTAVYDCAVRGSRFWGYDYWGQGTQVTVSS
polyreactivity (PSR sort gate): low polyreactivity

QVQLVESGGGLVQAGGSLRLSCAASGIIFKSYAMGWSRQAPGKERELVAAITKRGGSTYYADSVKGRFTISRDNAKNTVYLQMNSLKPEDTAVYYCAADDGVGNTDDYWGQGTQVTVSS
polyreactivity (PSR sort gate): high polyreactivity

QVQLVESGGGLVQAGGSLRLSCAASGIIFKYNAMGRYRQAPGKEREFVAAITGSGGSTYYADSVKGRFTISRDNAKNTVYLQMYSLKPEDTAVYYCARPQWRDWYGYWGQGTQVTVSS
polyreactivity (PSR sort gate): low polyreactivity

QVQLVESGGGLVQAGGSLRLSCAASGIIFKYYAMGWYRQAPGKEREFVATISRRGGSTYYAYSVKGRFTISRDNAKNTVYLQMNSLKPEDTAVYYCATEYSPGREYKFNFWGQGTQVTVSS
polyreactivity (PSR sort gate): high polyreactivity

QVQLVESGGGLVQAGGSLRLSCAASGIIFKYYAMGWYRQAPGKERELVAAISWTGDSTYADSVKGRFTISRDNAKNTVYLQMNSLKPEDTAVYYCAVAFRRVRSLGEGYWGQGTQVTVSS
polyreactivity (PSR sort gate): low polyreactivity

QVQLVESGGGLVQAGGSLRLSCAASGIIFKYYAMGWYRQAPGKERELVAAITWSDTRTYYADSVKGRFTISRDNAMNTVYLQMNSLKPEDTAVYYCAVDEPSLYSWGGGYYWGQGTQVTVSS
polyreactivity (PSR sort gate): high polyreactivity

QVQLVESGGGLVQAGGSLRLSCAASGIIFKYYAMGWYRQAPGKERELVAVISRSGGGTYYADSVKGRFTISRDNAKNTVYLQMNSLKPEDTAVYYCAAERSSGFDYWGQGTQVTVSS
polyreactivity (PSR sort gate): high polyreactivity

QVQLVESGGGLVQAGGSLRLSCAASGIIFKYYARGWYRQAPGKERELVAGITSGGSTYYADSVKGRFTISRDNAKNTVYLQMNSLKPEDTAVYYCATRVRDGSQPQYRRRHSYDYWGQGTQVTVSS
polyreactivity (PSR sort gate): high polyreactivity

QVQLVESGGGLVQAGGSLRLSCAASGIIFKYYVMGWYRQAPGKERELVAGIRSGGNTYYADSVKGRFTISRDNAKNTVYFQMNSLKPEDTAVYYCNARPQFRFTDSYDYWGQGTQVTVSS
polyreactivity (PSR sort gate): high polyreactivity

QVQLVESGGGLVQAGGSLRLSCAASGIIFLLYSMGWYRQAPGKERELVAAITNGGRTNYADSVKGRFTISRDNAKNTVYLQMNSLKPEDTAVYYCNAVLSVPDYTLFDYWGQGTQVTVSS
polyreactivity (PSR sort gate): low polyreactivity

QVQLVESGGGLVQAGGSLRLSCAASGIIFLTNAMGWSRPAPAKERELVAAITAIGGSTYYADSVKGRFTISRDNAKNTVYLQMNSLKPEDTAVYYCAADFSYVYYLYDYWGQGTQVTVSS
polyreactivity (PSR sort gate): low polyreactivity

QVQLVESGGGLVQAGGSLRLSCAASGIIFNSYAMGWYRQAPGKERELVAAITRAGRTYYADSVKGRFPISRDNAKNTVDLQMNSLKPEDTAVYYCAAAFLSRVQGYDSWGQGTQVTVSS
polyreactivity (PSR sort gate): high polyreactivity

QVQLVESGGGLVQAGGSLRLSCAASGIIFNYYAMGWYRQAPGKERELVAAITRGGRTNYADSVKGRFTISRDNAKNTVYLQMNSLKPEDTAVYYCNAPAFYTYKSFYAHSGYDYWGQGTQVTVSS
polyreactivity (PSR sort gate): high polyreactivity

QVQLVESGGGLVQAGGSLRLSCAASGIIFPFYAMGWYRQAPGKERELVAAITSDGNTNYADSVKGRFTISRDNAKNTVYLQMNSLKPEDTAVYYCNAETQYGVLSWHSTRHDYWGQGTQVTVSS
polyreactivity (PSR sort gate): low polyreactivity

QVQLVESGGGLVQAGGSLRLSCAASGIIFPFYAMGWYRQEPGKERELVAAITSGDDTYYADSVKGRFTISRDNAKNTVYLQMNSLKPEDTAVYYCAADSPYVVAWPYVWYFTFDYCGQGTQVTVSS
polyreactivity (PSR sort gate): low polyreactivity

QVQLVESGGGLVQAGGSLRLSCAASGIIFPGNVMGWYRQAPGKERELVAGISSSGSRTYYADSVKGRFTISRDNAKNTVYLQMNSLKPEDTAVYYCAAEHQRSRGRRYYIGYDYWGQGTQVTVSS
polyreactivity (PSR sort gate): low polyreactivity

QVQLVESGGGLVQAGGSLRLSCAASGIIFPLYAMGWYRQAPGKDRELVADITRVGSTYYADSVKGRFTISRDNAKNTVYLQMNSLKPEDTAVYYCNKQKRWTYSHYFPTTYDYWGQGTQVTVSS
polyreactivity (PSR sort gate): high polyreactivity

QVQLVESGGGLVQAGGSLRLSCAASGIIFPQYTMGWYRQAPGKERQLVAAITRSGGSTDYADSVKGRFTISRDNAKNTVYLQMNSLKPEDTAVYYCAAGWWRYKYPIGSSYNYWGQGTQVTVSS
polyreactivity (PSR sort gate): high polyreactivity

QVQLVESGGGLVQAGGSLRLSCAASGIIFPSYAMGWYRQAPGKERELVAAINSSGGSTYYADSVKGRFTISRDNAKNTVYLQMNSLKPEDTAVYYCAAEADLQWYPYSFPYPYYYWGQGTQVTVSS
polyreactivity (PSR sort gate): high polyreactivity

QVQLVESGGGLVQAGGSLRLSCAASGIIFPSYAMGWYRQAPGKERELVAAISLSGGRTYYADSVKGRFTISRDNAKNTVYLQMNSLKPEDTAVYYCAAYPTTRYSKYGYYWGQGTQVTVSS
polyreactivity (PSR sort gate): high polyreactivity

QVQLVESGGGLVQAGGSLRLSCAASGIIFPSYAMGWYRQAPGKERELVAAISLSGGRTYYADSVKGRFTISRDNAKNTVYLQMYSLKPEDTAVYYCAAYPSTSYSKYGYYWGQGTLVTVSS
polyreactivity (PSR sort gate): high polyreactivity

QVQLVESGGGLVQAGGSLRLSCAASGIIFPVYAMGWFRQAPGKERELVATIDSGGGTYYADSVKGRFTISRDNANNTVYLQMNSLKPEDTAVYYCNASHPPKAELAHWGQGTQVTVSS
polyreactivity (PSR sort gate): low polyreactivity

QVQLVESGGGLVQAGGSLRLSCAASGIIFPVYAMGWYRQAPGKERELVAAISSSGSSTYYADSVKGRFTISRDNAKNTVYLQMNSLKPEDTAVYYCAAVRYGLRRMDYWGQGTQVTVSS
polyreactivity (PSR sort gate): high polyreactivity

QVQLVESGGGLVQAGGSLRLSCAASGIIFPYNTMGWYRQAPGKERELVASIDDGGSTNYADSVKGRFTISRDNAKNTVYLQMNSLKPEDTAVYYCNADLFFIYVRQPGYDYWGQGTQVTVSS
polyreactivity (PSR sort gate): low polyreactivity
